pIC50: −log10 of the molar value. Where two headings read alike, the source gives them in different places. Values belong to the compound of their own block, whether it stands above or below them.
Columns and labels:
[1] = TEM of negatively stained solutions (self-assembly morphology); assay type: physicochemical; details: TEM (25 µM, TRIS 20 mM pH 7.4, 100 mM NaCl) and cryo-TEM (50 µM, PBS (-/-) pH 7.4, 100 mM NaCl)
Method: The application of transmission electron microscopy (TEM) gave further insight into the morphology of the assemblies induced by the secondary structure formation (Figure 1). All samples for convential TEM imaging were prepared by placing 5 μL of the aqueous solution on a sample grid for 1 min, followed by the removal of the excess liquid using a filter paper and subsequent negative staining using a 2% uranyl acetate solution. By analyzing a 25 μM aqueous solution of I, long rigid anisotopic rod-like structures with lengths of 200–400 nm could be visualized (Figure 1B and 1C), in agreement with our previously reported findings. […] The copresence of shorter, more flexible structures could be seen as well. […] Since the morphology of the aqueous supramolecular polymers observed in dry TEM can be influenced by the sample preparation, cryo-TEM experiments were furthermore performed in order to visualize the assemblies in a native state (Figure 1D and Figure S1 in Supporting Information File 1). The presence of straight nanorods of over 200 nm in length with a high degree of lateral order could be observed, thus corroborating the interpretations from dry TEM experiments.
In order to compare the morphology of the self-assembled sulfated compound II with the TEG-decorated compound I, TEM and cryo-TEM experiments were performed (Figure 2B and 2C). […]

[2] = CD spectroscopy, ionic strength-dependent titration of self-assembly; assay type: physicochemical; details: 25 µM solution in 20 mM TRIS, pH 7.4; CD band around 218 nm
Description: The self-assembly behavior of the peptide-based materials can be readily investigated using CD spectroscopy. The supramolecular polymerization strongly relies on the formation of secondary structure elements, leading to ordered domains that lead to characteristic CD band spectra. By probing aqueous solutions of I at different concentrations in H2O, a strongly negative CD band at around λ ≈ 220 nm became apparent (Figure 1A). In the past we have assigned this characteristic CD band to a β-sheet-dominated short-range ordering of oligopeptide monomers, which is stable over a wide concentration range [30, 39–40].
Attaching functional groups to the dendritic peptide amphiphiles – and thus the supramolecular polymers – by exchanging one of the shielding dendritic tetra(ethylene glycol) dendrons is important with regard to potential applications. However, depending on the nature of the functional groups, the influence on the self-assembly behavior may not be neglected. In the present work, the installation of a sulfated oligoglycerol dendron introduces eight anionic charges to the periphery of the peptide amphiphile II that possibly counteracts the β-sheet-driven self-assembly due to electrostatic repulsion. CD spectroscopic experiments based on 25 µM or 50 µM solutions of II in 20 mM TRIS as well as PBS buffer support this notion (Figure 2A and Figure S2 in Supporting Information File 1). […]

L-selectin [3] = target: T1, L-selectin (Homo sapiens, UniProt P14151); experiment: competitive SPR L-selectin binding (inhibition) assay; details: competitive SPR (BIAcore X); L-selectin/Fc chimera on protein A-coated 15 nm gold nanoparticles preincubated with analyte; chip with immobilized sulfated tyrosine/sialyl-Lewis X ligand; HEPES 0.020 M pH 7.4, 0.150 M NaCl, 0.001 M CaCl2; sigmoidal fit
T1 construct: purchased R&D Systems, Minneapolis, USA
T1 sequence (P14151 with tags, fused parts or gaps limits assumed, species assumed): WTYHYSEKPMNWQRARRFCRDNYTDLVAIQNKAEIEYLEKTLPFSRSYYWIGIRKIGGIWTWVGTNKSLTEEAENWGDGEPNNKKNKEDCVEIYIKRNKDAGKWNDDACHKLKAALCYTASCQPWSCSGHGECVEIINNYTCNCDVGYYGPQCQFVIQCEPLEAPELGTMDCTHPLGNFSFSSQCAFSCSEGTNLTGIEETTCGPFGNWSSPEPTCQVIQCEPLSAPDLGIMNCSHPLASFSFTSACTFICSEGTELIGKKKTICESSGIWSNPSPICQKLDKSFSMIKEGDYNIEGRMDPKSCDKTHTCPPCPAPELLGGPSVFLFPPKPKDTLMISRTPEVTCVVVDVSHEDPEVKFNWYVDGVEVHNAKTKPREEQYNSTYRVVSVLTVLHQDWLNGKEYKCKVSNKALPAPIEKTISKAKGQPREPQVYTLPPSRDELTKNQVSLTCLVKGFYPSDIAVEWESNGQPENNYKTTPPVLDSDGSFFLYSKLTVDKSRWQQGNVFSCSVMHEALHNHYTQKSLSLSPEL
Method: The L-selectin binding behavior of the sulfated supramolecular polymer resulting from II was assessed using a competitive surface plasmon resonance (SPR) binding assay, whereby neutral supramolecular polymers of I were used as control experiment. L-Selectin-coated gold nanoparticles were incubated with analyte solutions of different concentrations and subsequently probed on an SPR-chip modified with immobilized sulfated tyrosine and sialyl-Lewis^X as model ligands. The resulting signal is referenced to a control experiment lacking the preincubation of L-selectin particles. Figure 3 summarizes the resulting dose–response curves.
Figure 3 Concentration-dependent relative L-selectin binding of the supramolecular polymers I and II in HEPES buffer (0.020 M, pH 7.4, with 0.150 M NaCl and 0.001 M CaCl2) measured by SPR. L-Selectin-coated nanoparticles were preincubated with solutions of the supramolecular polymers. […]
(Quantifoil R1/4) at room temperature. […]
autoloader protocol. The micrographs were recorded under low -dose conditions with a primary
magnification of 28000x and an acceleration voltage of 200 kV. The images were recorded by […]
Minneapolis, USA), and the binding signal to the artificial ligand was recorded. […]
taken, which yielded the respective dose–response curves. The IC50 values were determined […]

L-selectin [4] = target: T1, L-selectin; details: literature comparison values; read-out: IC50, L-selectin binding; cited from earlier work
Description: However, the densely sulfated dendritic polyglycerol of similar molecular weight is able to bind in the ...

Compound: COCCOCCOCCOCCOCC(COCCOCCOCCOCCOC)(COCCOCCOCCOCCOC)NC(=O)CCCCCNC(=O)[C@H](Cc1ccccc1)NC(=O)[C@H](Cc1ccccc1)NC(=O)[C@H](Cc1ccccc1)NC(=O)c1cc(C(=O)N[C@@H](Cc2ccccc2)C(=O)N[C@@H](Cc2ccccc2)C(=O)N[C@@H](Cc2ccccc2)C(=O)NCCCCCC(=O)NCCOCCNC(=O)Cn2cc(COC(COC(COC(COS(=O)(=O)O)COS(=O)(=O)O)COC(COS(=O)(=O)O)COS(=O)(=O)O)COC(COC(COS(=O)(=O)O)COS(=O)(=O)O)COC(COS(=O)(=O)O)COS(=O)(=O)O)nn2)cc(C(=O)N[C@@H](Cc2ccccc2)C(=O)N[C@@H](Cc2ccccc2)C(=O)N[C@@H](Cc2ccccc2)C(=O)NCCCCCC(=O)NC(COCCOCCOCCOCCOC)(COCCOCCOCCOCCOC)COCCOCCOCCOCCOC)c1 [II]
length of long rigid rods [1]: several hundred nanometers
added NaCl at which the characteristic β-sheet CD signature is restored [2]: > 100 mM

pIC50 (L-selectin [3]): 5.30
Compound: COCCOCCOCCOCCOCC(COCCOCCOCCOCCOC)(COCCOCCOCCOCCOC)NC(=O)CCCCCNC(=O)[C@H](Cc1ccccc1)NC(=O)[C@H](Cc1ccccc1)NC(=O)[C@H](Cc1ccccc1)NC(=O)c1cc(C(=O)N[C@@H](Cc2ccccc2)C(=O)N[C@@H](Cc2ccccc2)C(=O)N[C@@H](Cc2ccccc2)C(=O)NCCCCCC(=O)NC(COCCOCCOCCOCCOC)(COCCOCCOCCOCCOC)COCCOCCOCCOCCOC)cc(C(=O)N[C@@H](Cc2ccccc2)C(=O)N[C@@H](Cc2ccccc2)C(=O)N[C@@H](Cc2ccccc2)C(=O)NCCCCCC(=O)NC(COCCOCCOCCOCCOC)(COCCOCCOCCOCCOC)COCCOCCOCCOCCOC)c1 [I]

Compound: unfractionated heparin
pIC50 (L-selectin [4]): 4.92

Reference: PMC7814183, “Supramolecular polymerization of sulfated dendritic peptide amphiphiles into multivalent L-selectin binders” (Beilstein Journal of Organic Chemistry, 2021)
